Paper PMC3079584, “A Cytoplasmic Complex Mediates Specific mRNA Recognition and Localization in Yeast”

Key:
Test in all cases: EMSA; +++; EMSA: 20 mM HEPES pH 7.8, 200 mM NaCl, 2 mM MgCl2, 2 mM DTT, 4% glycerol, 30 or 100 ug/ml yeast tRNA, 5 nM RNA, 20 C; filter binding: 20 mM HEPES pH 7.4-7.5 (7.9 with She3p), 150 mM NaCl, 2 mM MgCl2, 2 mM DTT, 30 ug/ml yeast tRNA, 0.5 nM RNA; pull-down: HNMD buffer, 4 C
She3p (334-425) = target: T1, She3p (334-425) (Saccharomyces cerevisiae, UniProt P38272 334-425); details: protein: recombinant; tags: MBP and His6 (EMSA); His6 (SEC, cross-linking); label: 32P; stem-loop
T1 sequence: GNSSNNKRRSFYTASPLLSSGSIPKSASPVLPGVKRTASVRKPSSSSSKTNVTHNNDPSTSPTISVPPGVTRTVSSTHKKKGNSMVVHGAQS

She3p (S343E S361E) = target: T2, She3p (S343E S361E) (Saccharomyces cerevisiae, UniProt P38272 1-425, S343E;S361E); details: protein: recombinant; tags: C-terminal His6; label: 32P; stem-loop
T2 sequence: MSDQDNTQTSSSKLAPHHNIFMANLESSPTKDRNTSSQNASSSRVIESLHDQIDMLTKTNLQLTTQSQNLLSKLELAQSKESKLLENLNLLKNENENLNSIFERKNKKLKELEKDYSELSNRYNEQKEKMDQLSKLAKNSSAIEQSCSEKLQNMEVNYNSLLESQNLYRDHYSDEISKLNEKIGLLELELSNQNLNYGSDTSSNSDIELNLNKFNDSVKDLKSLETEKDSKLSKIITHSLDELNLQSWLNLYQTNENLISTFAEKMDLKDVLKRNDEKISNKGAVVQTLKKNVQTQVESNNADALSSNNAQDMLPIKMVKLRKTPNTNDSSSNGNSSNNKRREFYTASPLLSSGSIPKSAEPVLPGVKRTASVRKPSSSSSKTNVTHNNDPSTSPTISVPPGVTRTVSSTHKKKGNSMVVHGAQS

She3p (S348E) = target: T3, She3p (S348E) (Saccharomyces cerevisiae, UniProt P38272 1-425, S348E); details: protein: recombinant; tags: C-terminal His6; label: 32P; stem-loop
T3 sequence: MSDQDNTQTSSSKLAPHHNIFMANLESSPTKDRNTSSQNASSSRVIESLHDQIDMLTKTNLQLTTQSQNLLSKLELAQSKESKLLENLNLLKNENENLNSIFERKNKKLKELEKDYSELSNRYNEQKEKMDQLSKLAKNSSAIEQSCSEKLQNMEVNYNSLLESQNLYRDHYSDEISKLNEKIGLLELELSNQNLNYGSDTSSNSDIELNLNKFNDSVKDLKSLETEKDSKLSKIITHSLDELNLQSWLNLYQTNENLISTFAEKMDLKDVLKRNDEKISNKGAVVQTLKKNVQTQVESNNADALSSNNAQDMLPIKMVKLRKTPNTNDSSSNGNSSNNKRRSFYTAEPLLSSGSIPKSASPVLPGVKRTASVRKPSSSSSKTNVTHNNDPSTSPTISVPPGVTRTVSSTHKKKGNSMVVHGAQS

She3p (L364A V367A) = target: T4, She3p (L364A V367A) (Saccharomyces cerevisiae, UniProt P38272 1-425, L364A;V367A); details: protein: recombinant; tags: C-terminal His6; label: 32P; stem-loop
T4 sequence: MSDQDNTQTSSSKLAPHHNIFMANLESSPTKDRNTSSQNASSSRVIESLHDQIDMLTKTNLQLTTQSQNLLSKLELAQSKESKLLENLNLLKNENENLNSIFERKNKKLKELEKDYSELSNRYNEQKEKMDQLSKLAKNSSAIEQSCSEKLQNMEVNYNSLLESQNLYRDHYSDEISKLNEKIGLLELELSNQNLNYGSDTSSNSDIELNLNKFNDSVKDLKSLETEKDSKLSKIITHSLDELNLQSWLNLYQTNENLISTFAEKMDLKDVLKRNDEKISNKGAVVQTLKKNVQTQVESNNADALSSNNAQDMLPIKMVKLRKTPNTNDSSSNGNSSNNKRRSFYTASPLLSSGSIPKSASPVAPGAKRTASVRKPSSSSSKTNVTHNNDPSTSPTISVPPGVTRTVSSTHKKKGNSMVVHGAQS

Measured: binding result

B1: ASH1 E3-118 (structured_RNA)
RNA: GAGACAGUAGAGAAUUGAUACAUGGAUAACUGAAUCUCUUUCAACUAAUAAGAGACAUUAUCACGAAACAAUUGUACAUUUCUCUCCUUGUCUGUGCUAAAUAAACUACAAAUAAAAA
binds: all assays above
